Data reported in US7119182 (University of California, dated 2006).
Square brackets hold non-standard residues; d marks the D form. Ends that are not written are not given here. * marks the point of attachment. SMeMpr = S-methyl-3-mercaptopropionic acid, CSCCC(=O)*; Cha = N[C@@H](CC1CCCCC1)C(=O)O; Mpa = O=C(O)CCS

T1: human thrombin receptor (human, UniProt P25116 42-425)
T1 chain: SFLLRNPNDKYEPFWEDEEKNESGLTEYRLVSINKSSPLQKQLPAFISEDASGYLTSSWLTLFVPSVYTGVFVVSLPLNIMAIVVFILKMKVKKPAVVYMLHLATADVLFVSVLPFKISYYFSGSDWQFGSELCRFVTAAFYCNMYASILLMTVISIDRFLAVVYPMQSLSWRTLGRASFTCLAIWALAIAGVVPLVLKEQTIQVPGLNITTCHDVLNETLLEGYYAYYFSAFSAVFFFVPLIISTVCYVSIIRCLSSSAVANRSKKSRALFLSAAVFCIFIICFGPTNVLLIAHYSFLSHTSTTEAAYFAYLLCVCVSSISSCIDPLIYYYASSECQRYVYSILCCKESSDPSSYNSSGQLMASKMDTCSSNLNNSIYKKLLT


Target: T1, human thrombin receptor
Assay: cell-based or functional assay

Binder | IC50 (50% inhibition of thrombin-induced platelet activation or aggregation)
[Mpa]F[Cha][Cha]RNPNDK-NH2 (SMILES N=C(N)NCCC[C@H](NC(=O)[C@H](CC1CCCCC1)NC(=O)[C@H](CC1CCCCC1)NC(=O)[C@H](Cc1ccccc1)NC(=O)CCS)C(=O)N[C@@H](CC(N)=O)C(=O)N1CCC[C@H]1C(=O)N[C@@H](CC(N)=O)C(=O)N[C@@H](CC(=O)O)C(=O)N[C@@H](CCCCN)C(N)=O) [Mpr-F(Cha) (Cha)RNPNDK-NH2] | 25 µM
[Mpa]F[Cha][Cha]RFPNDK-NH2 (SMILES N=C(N)NCCC[C@H](NC(=O)[C@H](CC1CCCCC1)NC(=O)[C@H](CC1CCCCC1)NC(=O)[C@H](Cc1ccccc1)NC(=O)CCS)C(=O)N[C@@H](Cc1ccccc1)C(=O)N1CCC[C@H]1C(=O)N[C@@H](CC(N)=O)C(=O)N[C@@H](CC(=O)O)C(=O)N[C@@H](CCCCN)C(N)=O) [Mpr-F(Cha) (Cha)RFPNDK-NH2] | > 100 µM
[Mpa]F[Cha][Cha]RNPNDKY [Mpr-F(Cha) (Cha)RNPNDKY] | 40 µM
[Mpa]F[Cha][Cha]RNPND-NH2 (SMILES N=C(N)NCCC[C@H](NC(=O)[C@H](CC1CCCCC1)NC(=O)[C@H](CC1CCCCC1)NC(=O)[C@H](Cc1ccccc1)NC(=O)CCS)C(=O)N[C@@H](CC(N)=O)C(=O)N1CCC[C@H]1C(=O)N[C@@H](CC(N)=O)C(=O)N[C@@H](CC(=O)O)C(N)=O) [Mpr-F(Cha) (Cha)RNPND-NH2] | 50 µM
{Cam‑Mpr}-FLLR-NH2 [[Cam-Mpr]-FLLR-NH2] | 1000 µM
[Mpa]F[Cha][Cha]RKPNDK-NH2 [Mpr-F(Cha) (Cha)RKPNDK-NH2] | 5 µM
[Mpa]F[Cha][Cha]RKPNDA-NH2 (SMILES C[C@H](NC(=O)[C@H](CC(=O)O)NC(=O)[C@H](CC(N)=O)NC(=O)[C@@H]1CCCN1C(=O)[C@H](CCCCN)NC(=O)[C@H](CCCNC(=N)N)NC(=O)[C@H](CC1CCCCC1)NC(=O)[C@H](CC1CCCCC1)NC(=O)[C@H](Cc1ccccc1)NC(=O)CCS)C(N)=O) [Mpr-F(Cha) (Cha)RKPNDA-NH2] | 50 µM
[Mpa]F[Cha][Cha]RNPNDK-OH (SMILES N=C(N)NCCC[C@H](NC(=O)[C@H](CC1CCCCC1)NC(=O)[C@H](CC1CCCCC1)NC(=O)[C@H](Cc1ccccc1)NC(=O)CCS)C(=O)N[C@@H](CC(N)=O)C(=O)N1CCC[C@H]1C(=O)N[C@@H](CC(N)=O)C(=O)N[C@@H](CC(=O)O)C(=O)N[C@@H](CCCCN)C(=O)O) [Mpr-F(Cha) (Cha)RNPNDK] | 30 µM
[Mpa]F[Cha][Cha]RNPNAK-NH2 (SMILES C[C@H](NC(=O)[C@H](CC(N)=O)NC(=O)[C@@H]1CCCN1C(=O)[C@H](CC(N)=O)NC(=O)[C@H](CCCNC(=N)N)NC(=O)[C@H](CC1CCCCC1)NC(=O)[C@H](CC1CCCCC1)NC(=O)[C@H](Cc1ccccc1)NC(=O)CCS)C(=O)N[C@@H](CCCCN)C(N)=O) [Mpr-F(Cha) (Cha)RNPNAK-NH2] | > 100 µM
[Mpa]F[Cha][Cha]RN-NH2 (SMILES N=C(N)NCCC[C@H](NC(=O)[C@H](CC1CCCCC1)NC(=O)[C@H](CC1CCCCC1)NC(=O)[C@H](Cc1ccccc1)NC(=O)CCS)C(=O)N[C@@H](CC(N)=O)C(N)=O) [Mpr-F(Cha) (Cha)RN-NH2] | 100 µM
[Mpa]F[Cha][Cha]RGPNDK-NH2 (SMILES N=C(N)NCCC[C@H](NC(=O)[C@H](CC1CCCCC1)NC(=O)[C@H](CC1CCCCC1)NC(=O)[C@H](Cc1ccccc1)NC(=O)CCS)C(=O)NCC(=O)N1CCC[C@H]1C(=O)N[C@@H](CC(N)=O)C(=O)N[C@@H](CC(=O)O)C(=O)N[C@@H](CCCCN)C(N)=O) [Mpr-F(Cha) (Cha)RGPNDK-NH2] | 20 µM
[Mpa]F[Cha][Cha]RNPNDA-NH2 (SMILES C[C@H](NC(=O)[C@H](CC(=O)O)NC(=O)[C@H](CC(N)=O)NC(=O)[C@@H]1CCCN1C(=O)[C@H](CC(N)=O)NC(=O)[C@H](CCCNC(=N)N)NC(=O)[C@H](CC1CCCCC1)NC(=O)[C@H](CC1CCCCC1)NC(=O)[C@H](Cc1ccccc1)NC(=O)CCS)C(N)=O) [Mpr-F(Cha) (Cha)RNPNDA-NH2] | 50 µM
[Mpa]F[Cha][Cha]RAPNDK-NH2 (SMILES C[C@H](NC(=O)[C@H](CCCNC(=N)N)NC(=O)[C@H](CC1CCCCC1)NC(=O)[C@H](CC1CCCCC1)NC(=O)[C@H](Cc1ccccc1)NC(=O)CCS)C(=O)N1CCC[C@H]1C(=O)N[C@@H](CC(N)=O)C(=O)N[C@@H](CC(=O)O)C(=O)N[C@@H](CCCCN)C(N)=O) [Mpr-F(Cha) (Cha)RAPNDK-NH2] | 40 µM
[Mpa]F[Cha][Cha]RNPNDKY-NH2 (SMILES N=C(N)NCCC[C@H](NC(=O)[C@H](CC1CCCCC1)NC(=O)[C@H](CC1CCCCC1)NC(=O)[C@H](Cc1ccccc1)NC(=O)CCS)C(=O)N[C@@H](CC(N)=O)C(=O)N1CCC[C@H]1C(=O)N[C@@H](CC(N)=O)C(=O)N[C@@H](CC(=O)O)C(=O)N[C@@H](CCCCN)C(=O)N[C@@H](Cc1ccc(O)cc1)C(N)=O) [Mpr-F(Cha) (Cha)RNPNDKY-NH2] | 75 µM
[Mpa]F[Cha][Cha]RNANDK-NH2 (SMILES C[C@H](NC(=O)[C@H](CC(N)=O)NC(=O)[C@H](CCCNC(=N)N)NC(=O)[C@H](CC1CCCCC1)NC(=O)[C@H](CC1CCCCC1)NC(=O)[C@H](Cc1ccccc1)NC(=O)CCS)C(=O)N[C@@H](CC(N)=O)C(=O)N[C@@H](CC(=O)O)C(=O)N[C@@H](CCCCN)C(N)=O) [Mpr-F(Cha) (Cha)RNANDK-NH2] | 75 µM
SMeMpr-F[Cha][Cha]RKPNDK-NH2 (SMILES CSCCC(=O)N[C@@H](Cc1ccccc1)C(=O)N[C@@H](CC1CCCCC1)C(=O)N[C@@H](CC1CCCCC1)C(=O)N[C@@H](CCCNC(=N)N)C(=O)N[C@@H](CCCCN)C(=O)N1CCC[C@H]1C(=O)N[C@@H](CC(N)=O)C(=O)N[C@@H](CC(=O)O)C(=O)N[C@@H](CCCCN)C(N)=O) [(SMeMpr)-F(Cha)(Cha)RKPNDK-NH2] | 10 µM
[Mpa]F[Cha][Cha]RNPADK-NH2 (SMILES C[C@H](NC(=O)[C@@H]1CCCN1C(=O)[C@H](CC(N)=O)NC(=O)[C@H](CCCNC(=N)N)NC(=O)[C@H](CC1CCCCC1)NC(=O)[C@H](CC1CCCCC1)NC(=O)[C@H](Cc1ccccc1)NC(=O)CCS)C(=O)N[C@@H](CC(=O)O)C(=O)N[C@@H](CCCCN)C(N)=O) [Mpr-F(Cha) (Cha)RNPADK-NH2] | 75 µM
[Mpa]F[Cha][Cha]RKPNEK-NH2 [Mpr-P(Cha) (Cha)RKPNEK-NH2] | 10 µM
Pivaloyl-FLLR-NH2 [Pivaloyl-FLLR-NH2] | 1000 µM
[Mpa]F[Cha][Cha]RNPNDKYE-NH2 (SMILES N=C(N)NCCC[C@H](NC(=O)[C@H](CC1CCCCC1)NC(=O)[C@H](CC1CCCCC1)NC(=O)[C@H](Cc1ccccc1)NC(=O)CCS)C(=O)N[C@@H](CC(N)=O)C(=O)N1CCC[C@H]1C(=O)N[C@@H](CC(N)=O)C(=O)N[C@@H](CC(=O)O)C(=O)N[C@@H](CCCCN)C(=O)N[C@@H](Cc1ccc(O)cc1)C(=O)N[C@@H](CCC(=O)O)C(N)=O) [Mpr-F(Cha) (Cha)RNPNDKYE-NH2] | 80 µM
[Mpa]FLLRNPNC-NH2 (cysteine pairing not given here) [Mpr-FLLRNPNC-NH2] | 400 µM

Target: T1, human thrombin receptor
Assay: cell-based or functional assay
Remark: another data set of the same source

Binder | EC50 (concentration required to elicit a 50% maximal aggregation), platelet aggregation
SFLLQN-NH2 [SFLLQN-NH2] | 20.2 µM
SFF[Cha]RA-NH2 (N-terminus assumed; SMILES C[C@H](NC(=O)[C@H](CCCNC(=N)N)NC(=O)[C@H](CC1CCCCC1)NC(=O)[C@H](Cc1ccccc1)NC(=O)[C@H](Cc1ccccc1)NC(=O)[C@@H](N)CO)C(N)=O) [SFF(Cha)RA-NH2] | 1.4 µM
SF[Cha][Cha]RK-NH2 (N-terminus assumed; SMILES N=C(N)NCCC[C@H](NC(=O)[C@H](CC1CCCCC1)NC(=O)[C@H](CC1CCCCC1)NC(=O)[C@H](Cc1ccccc1)NC(=O)[C@@H](N)CO)C(=O)N[C@@H](CCCCN)C(N)=O) [SF(Cha) (Cha)RK-NH2] | 0.82 µM
SFLLKN-NH2 [SFLLKN-NH2] | 11.1 µM
SFLLLN-NH2 [SFLLLN-NH2] | 44.9 µM
